Test results: US20230357348A1 (AstraZeneca / MedImmune, published 2023)
Where two headings read alike, the source gives them in different places. Starred links: 1 amine or outer side, 2 acyl side, 3 side chain; linkers in the order of their positions; H or OH if unused. Non-standard residues stand in square brackets, D forms with d. Groups on a side chain read outwards from the residue. Primed or numbered codes have the meaning given here. No end group written: not given here. *: point of attachment. C20 diacid = O=C(O)CCCCCCCCCCCCCCCCCCC(=O)*; C18 diacid = O=C(O)CCCCCCCCCCCCCCCCC(=O)*; γGlu = O=C(O)[C@H](CCC(=O)[*:2])N[*:1]; Palmitoyl = CCCCCCCCCCCCCCCC(=O)*; αMeF = C[C@](N)(Cc1ccccc1)C(=O)O; PEG2′ = polyethylene glycol 2; AEEA = NCCOCCOCC(=O)O; Aib = CC(C)(N)C(=O)O

B1: Peptide 392 (of Table 9, position 10) (peptide)
peptide: H[Aib]HGS[αMeF]TSDK([AEEA-AEEA-γGlu-C18 diacid])SK[αMeF]LDSRAAQD[αMeF]VQ[Aib]IANT-NH2
modifications: N-terminus assumed
SMILES: CC[C@H](C)[C@H](NC(=O)C(C)(C)NC(=O)[C@H](CCC(N)=O)NC(=O)[C@@H](NC(=O)[C@](C)(Cc1ccccc1)NC(=O)[C@H](CC(=O)O)NC(=O)[C@H](CCC(N)=O)NC(=O)[C@H](C)NC(=O)[C@H](C)NC(=O)[C@H](CCCNC(=N)N)NC(=O)[C@H](CO)NC(=O)[C@H](CC(=O)O)NC(=O)[C@H](CC(C)C)NC(=O)[C@](C)(Cc1ccccc1)NC(=O)[C@H](CCCCN)NC(=O)[C@H](CO)NC(=O)[C@H](CCCCNC(=O)COCCOCCNC(=O)COCCOCCNC(=O)CC[C@H](NC(=O)CCCCCCCCCCCCCCCCC(=O)O)C(=O)O)NC(=O)[C@H](CC(=O)O)NC(=O)[C@H](CO)NC(=O)[C@@H](NC(=O)[C@](C)(Cc1ccccc1)NC(=O)[C@H](CO)NC(=O)CNC(=O)[C@H](Cc1c[nH]cn1)NC(=O)C(C)(C)NC(=O)[C@@H](N)Cc1c[nH]cn1)[C@@H](C)O)C(C)C)C(=O)N[C@@H](C)C(=O)N[C@@H](CC(N)=O)C(=O)N[C@H](C(N)=O)[C@@H](C)O
B2: Peptide 355 (peptide)
peptide: HXHGSXTSDVSKXLDSQAAQDFVXWIANT
modifications: Aib at 2; αMePhe at 6 and 13; K((PEG)2-(PEG)2-γE-γE-C20diacid)24; C-terminal amide
B3: Peptide 359 (peptide)
peptide: HXIGSXTSDVSKXLDSQAAQDFVXWIANT
modifications: Aib at 2; αMePhe at 6 and 13; K(O2Oc-O2Oc-γE-C18diacid)24; C-terminal amide
B4: Peptide 357 (peptide)
peptide: HXHGSXTSDVSKXLDSQAAQDFVXWIANT
modifications: Aib at 2; αMePhe at 6 and 13; K(γE-γE-(PEG)2-γE-γE-C20diacid)24; C-terminal amide
B5: Peptide 348 (peptide)
peptide: HXHGTFTSDVSKXLDSQAAQDFVXWIANT
modifications: Aib at 2; αMePhe at 6 and 13; K(O2Oc-O2Oc-γE-C18diacid)24; C-terminal amide
B6: Peptide 360 (peptide)
peptide: H[Aib]IGS[αMeF]TSDVSK[αMeF]LDSRAAQDFVK([AEEA-AEEA-γGlu-C20 diacid])WIANT-NH2
modifications: N-terminus assumed
SMILES: CC[C@H](C)[C@H](NC(=O)[C@H](Cc1c[nH]c2ccccc12)NC(=O)[C@H](CCCCNC(=O)COCCOCCNC(=O)COCCOCCNC(=O)CC[C@H](NC(=O)CCCCCCCCCCCCCCCCCCC(=O)O)C(=O)O)NC(=O)[C@@H](NC(=O)[C@H](Cc1ccccc1)NC(=O)[C@H](CC(=O)O)NC(=O)[C@H](CCC(N)=O)NC(=O)[C@H](C)NC(=O)[C@H](C)NC(=O)[C@H](CCCNC(=N)N)NC(=O)[C@H](CO)NC(=O)[C@H](CC(=O)O)NC(=O)[C@H](CC(C)C)NC(=O)[C@](C)(Cc1ccccc1)NC(=O)[C@H](CCCCN)NC(=O)[C@H](CO)NC(=O)[C@@H](NC(=O)[C@H](CC(=O)O)NC(=O)[C@H](CO)NC(=O)[C@@H](NC(=O)[C@](C)(Cc1ccccc1)NC(=O)[C@H](CO)NC(=O)CNC(=O)[C@@H](NC(=O)C(C)(C)NC(=O)[C@@H](N)Cc1c[nH]cn1)[C@@H](C)CC)[C@@H](C)O)C(C)C)C(C)C)C(=O)N[C@@H](C)C(=O)N[C@@H](CC(N)=O)C(=O)N[C@H](C(N)=O)[C@@H](C)O
B7: Peptide 356 (peptide)
peptide: HXHGSXTSDVSKXLDSQAAQDFVXWIANT
modifications: Aib at 2; αMePhe at 6 and 13; K(O2Oc-O2Oc-γE-C20diacid)24; C-terminal amide
B8: Peptide 353 (peptide)
peptide: HXHGSXTSDVSKXLDSQAAQDFVXWIANT
modifications: Aib at 2; αMePhe at 6 and 13; K(γE-γE-(PEG)2-γE-γE-C18diacid)24 (printed YE-YE-(PEG)2-γE-γE-); C-terminal amide
B9: Peptide 368 (peptide)
peptide: H[Aib]HGS[αMeF]TSDVSK[αMeF]LDSR[Aib]AQDFVK([AEEA-AEEA-γGlu-C20 diacid])WIANT-NH2
modifications: N-terminus assumed
SMILES: CC[C@H](C)[C@H](NC(=O)[C@H](Cc1c[nH]c2ccccc12)NC(=O)[C@H](CCCCNC(=O)COCCOCCNC(=O)COCCOCCNC(=O)CC[C@H](NC(=O)CCCCCCCCCCCCCCCCCCC(=O)O)C(=O)O)NC(=O)[C@@H](NC(=O)[C@H](Cc1ccccc1)NC(=O)[C@H](CC(=O)O)NC(=O)[C@H](CCC(N)=O)NC(=O)[C@H](C)NC(=O)C(C)(C)NC(=O)[C@H](CCCNC(=N)N)NC(=O)[C@H](CO)NC(=O)[C@H](CC(=O)O)NC(=O)[C@H](CC(C)C)NC(=O)[C@](C)(Cc1ccccc1)NC(=O)[C@H](CCCCN)NC(=O)[C@H](CO)NC(=O)[C@@H](NC(=O)[C@H](CC(=O)O)NC(=O)[C@H](CO)NC(=O)[C@@H](NC(=O)[C@](C)(Cc1ccccc1)NC(=O)[C@H](CO)NC(=O)CNC(=O)[C@H](Cc1c[nH]cn1)NC(=O)C(C)(C)NC(=O)[C@@H](N)Cc1c[nH]cn1)[C@@H](C)O)C(C)C)C(C)C)C(=O)N[C@@H](C)C(=O)N[C@@H](CC(N)=O)C(=O)N[C@H](C(N)=O)[C@@H](C)O
B10: Peptide 361 (peptide)
peptide: H[Aib]IGS[αMeF]TSDVSK[αMeF]LDSRAAQDFVK([AEEA-AEEA-γGlu-C18 diacid])WIANT-NH2
modifications: N-terminus assumed
SMILES: CC[C@H](C)[C@H](NC(=O)[C@H](Cc1c[nH]c2ccccc12)NC(=O)[C@H](CCCCNC(=O)COCCOCCNC(=O)COCCOCCNC(=O)CC[C@H](NC(=O)CCCCCCCCCCCCCCCCC(=O)O)C(=O)O)NC(=O)[C@@H](NC(=O)[C@H](Cc1ccccc1)NC(=O)[C@H](CC(=O)O)NC(=O)[C@H](CCC(N)=O)NC(=O)[C@H](C)NC(=O)[C@H](C)NC(=O)[C@H](CCCNC(=N)N)NC(=O)[C@H](CO)NC(=O)[C@H](CC(=O)O)NC(=O)[C@H](CC(C)C)NC(=O)[C@](C)(Cc1ccccc1)NC(=O)[C@H](CCCCN)NC(=O)[C@H](CO)NC(=O)[C@@H](NC(=O)[C@H](CC(=O)O)NC(=O)[C@H](CO)NC(=O)[C@@H](NC(=O)[C@](C)(Cc1ccccc1)NC(=O)[C@H](CO)NC(=O)CNC(=O)[C@@H](NC(=O)C(C)(C)NC(=O)[C@@H](N)Cc1c[nH]cn1)[C@@H](C)CC)[C@@H](C)O)C(C)C)C(C)C)C(=O)N[C@@H](C)C(=O)N[C@@H](CC(N)=O)C(=O)N[C@H](C(N)=O)[C@@H](C)O
B11: Peptide 384 (peptide)
peptide: H[Aib]HGS[αMeF]TSDVSK[αMeF]LDSQAAQD[αMeF]VK([AEEA-AEEA-γGlu-γGlu-C20 diacid])[Aib]IANT-NH2
B12: Peptide 396 (of Table 9, position 10) (peptide)
peptide: H[Aib]QGS[αMeF]TSDK([PEG2′-PEG2′-γGlu-Palmitoyl])SKILDSRAAQD[αMeF]VEWIANT-NH2
B13: Peptide 349 (peptide)
peptide: HXQGSXTSDVSKXLDSQAAQDFVXWIANT
modifications: Aib at 2; αMePhe at 6 and 13; K(O2Oc-O2Oc-γE-C18diacid)24; C-terminal amide
B14: Peptide 347 (peptide)
peptide: HXHGTFTSDVSKXLDSQAAQDFVXWIANT
modifications: Aib at 2; αMePhe at 13; K(γE-C20diacid)24; C-terminal amide
B15: Peptide 354 (peptide)
peptide: HXHGSXTSDVSKXLDSQAAQDFVXWIANT
modifications: Aib at 2; αMePhe at 6 and 13; K(γE-C20diacid)24; C-terminal amide
B16: Peptide 382 (peptide)
peptide: H[Aib]HGS[αMeF]TSDVSK[αMeF]LDSR[Aib]AQDFVK([AEEA-AEEA-γGlu-γGlu-C18 diacid])SIANTGG-NH2
modifications: N-terminus assumed
SMILES: CC[C@H](C)[C@H](NC(=O)[C@H](CO)NC(=O)[C@H](CCCCNC(=O)COCCOCCNC(=O)COCCOCCNC(=O)CC[C@H](NC(=O)CC[C@H](NC(=O)CCCCCCCCCCCCCCCCC(=O)O)C(=O)O)C(=O)O)NC(=O)[C@@H](NC(=O)[C@H](Cc1ccccc1)NC(=O)[C@H](CC(=O)O)NC(=O)[C@H](CCC(N)=O)NC(=O)[C@H](C)NC(=O)C(C)(C)NC(=O)[C@H](CCCNC(=N)N)NC(=O)[C@H](CO)NC(=O)[C@H](CC(=O)O)NC(=O)[C@H](CC(C)C)NC(=O)[C@](C)(Cc1ccccc1)NC(=O)[C@H](CCCCN)NC(=O)[C@H](CO)NC(=O)[C@@H](NC(=O)[C@H](CC(=O)O)NC(=O)[C@H](CO)NC(=O)[C@@H](NC(=O)[C@](C)(Cc1ccccc1)NC(=O)[C@H](CO)NC(=O)CNC(=O)[C@H](Cc1c[nH]cn1)NC(=O)C(C)(C)NC(=O)[C@@H](N)Cc1c[nH]cn1)[C@@H](C)O)C(C)C)C(C)C)C(=O)N[C@@H](C)C(=O)N[C@@H](CC(N)=O)C(=O)N[C@H](C(=O)NCC(=O)NCC(N)=O)[C@@H](C)O
B17: Peptide 367 (peptide)
peptide: H[Aib]HGS[αMeF]TSDVSK[αMeF]LDSRAAQDFVK([AEEA-AEEA-γGlu-C20 diacid])WIANT-NH2
modifications: not fully specified

Columns and labels:
Assay in all cases: cell-based or functional assay
[1] = target: T1, human GLP-1 receptor (hGLP-1R) (human, UniProt P43220 24-463)
[2] = target: T2, human glucagon receptor (hGCGR) (human, UniProt P47871 26-477)
[3] = target: T1, human GLP-1 receptor (hGLP-1R); remark: listed apart in the source
[4] = target: T2, human glucagon receptor (hGCGR); remark: listed apart in the source

T2 sequence (P47871 26-477): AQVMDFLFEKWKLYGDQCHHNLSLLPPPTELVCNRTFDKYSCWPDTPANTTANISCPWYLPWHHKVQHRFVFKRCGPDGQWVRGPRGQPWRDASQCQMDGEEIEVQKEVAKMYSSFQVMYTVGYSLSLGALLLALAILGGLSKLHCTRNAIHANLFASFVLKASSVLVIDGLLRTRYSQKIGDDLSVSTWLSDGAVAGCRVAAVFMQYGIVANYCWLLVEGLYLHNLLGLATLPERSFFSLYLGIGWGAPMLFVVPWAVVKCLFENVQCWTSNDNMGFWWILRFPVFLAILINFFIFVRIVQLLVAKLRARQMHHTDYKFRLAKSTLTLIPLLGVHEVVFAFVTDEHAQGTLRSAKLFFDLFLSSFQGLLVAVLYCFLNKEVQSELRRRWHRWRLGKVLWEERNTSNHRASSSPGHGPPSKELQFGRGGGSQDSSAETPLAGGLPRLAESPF

Binder	hGLP-1R EC50 (pM); cAMP production [1] [pM]	hGluc-R EC50 (pM); cAMP production [2] [pM]	hGLP-1R EC50 (pM); cAMP production [3] [pM]	hGluc-R EC50 (pM); cAMP production [4] [pM]
B1	312	6920	–	–
B2	–	–	424	478
B3	–	–	46.1	5050
B4	–	–	917	550
B5	–	–	70.1	4110
B6	–	–	108	5640
B7	–	–	304	316
B8	–	–	311	163
B9	–	–	186	290
B10	–	–	35.7	23.6
B11	–	–	797	1240
B12	0.583	11.8	–	–
B13	–	–	121	83.7
B14	–	–	4970	597
B15	–	–	1110	902
B16	–	–	56	329
B17	–	–	139	72.4
